± gives the standard deviation of the averaged measurements.
Assay: total protein half-life in vivo (active degradation + dilution); higher = more stable protein
[1] = E. coli NCM3722 delta-clpP delta-lon delta-hslV, growth: N-lim chemostat, doubling time 6 h
[2] = E. coli NCM3722 delta-lon, growth: N-lim chemostat, doubling time 6 h
[3] = E. coli NCM3722 delta-smpB, growth: N-lim chemostat, doubling time 6 h
[4] = wild type E. coli NCM3722, growth: C-lim chemostat, doubling time 3 h
[5] = wild type E. coli NCM3722, growth: C-lim chemostat, doubling time 6 h
[6] = wild type E. coli NCM3722, growth: C-lim chemostat, doubling time 12 h
[7] = wild type E. coli NCM3722, growth: P-lim chemostat, doubling time 6 h
[8] = wild type E. coli NCM3722, growth: P-lim chemostat, doubling time 12 h
[9] = E. coli NCM3722 delta-clpP, growth: N-lim chemostat, doubling time 6 h
[10] = E. coli NCM3722 delta-hslV, growth: N-lim chemostat, doubling time 6 h
[11] = wild type E. coli NCM3722, growth: N-lim chemostat, doubling time 6 h
[12] = wild type E. coli NCM3722, growth: N-lim chemostat, doubling time 12 h

Sequence	total protein half-life in vivo [1]	total protein half-life in vivo [2]	total protein half-life in vivo [3]	total protein half-life in vivo [4]	total protein half-life in vivo [5]	total protein half-life in vivo [6]	total protein half-life in vivo [7]	total protein half-life in vivo [8]	total protein half-life in vivo [9]	total protein half-life in vivo [10]	total protein half-life in vivo [11]	total protein half-life in vivo [12]
MDFNLNDEQELFVAGIRELMASENWEAYFAECDRDSVYPERFVKALADMGIDSLLIPEEHGGLDAGFVTLAAVWMELGRLGAPTYVLYQLPGGFNTFLREGTQEQIDKIMAFRGTGKQMWNSAITEPGAGSDVGSLKTTYTRRNGKIYLNGSKCFITSSAYTPYIVVMARDGASPDKPVYTEWFVDMSKPGIKVTKLEKLGLRMDSCCEITFDDVELDEKDMFGREGNGFNRVKEEFDHERFLVALTNYGTAMCAFEDAARYANQRVQFGEAIGRFQLIQEKFAHMAIKLNSMKNMLYEAAWKADNGTITSGDAAMCKYFCANAAFEVVDSAMQVLGGVGIAGNHRISRFWRDLRVDRVSGGSDEMQILTLGRAVLKQYR	> 8 h	3.62 ± 0.096 h	2.77 ± 0.42 h	2.46 h	3.58 h	7.41 ± 1.4 h	5.45 ± 0.16 h	11.5 ± 1.7 h	–	–	–	–
MDHLPIFCQLRDRDCLIVGGGDVAERKARLLLDAGARLTVNALAFIPQFTAWADAGMLTLVEGPFDESLLDTCWLAIAATDDDALNQRVSEAAEARRIFCNVVDAPKAASFIMPSIIDRSPLMVAVSSGGTSPVLARLLREKLESLLPLHLGQVAKYAGQLRGRVKQQFATMGERRRFWEKLFVNDRLAQSLANNDQKAITETTEQLINEPLDHRGEVVLVGAGPGDAGLLTLKGLQQIQQADVVVYDRLVSDDIMNLVRRDADRVFVGKRAGYHCVPQEEINQILLREAQKGKRVVRLKGGDPFIFGRGGEELETLCNAGIPFSVVPGITAASGCSAYSGIPLTHRDYAQSVRLITGHLKTGGELDWENLAAEKQTLVFYMGLNQAATIQQKLIEHGMPGEMPVAIVENGTAVTQRVIDGTLTQLGELAQQMNSPSLIIIGRVVGLRDKLNWFSNH [P0AEA8]	5.19 ± 0.22 h	5.23 ± 0.94 h	4.7 ± 0.87 h	3.42 ± 0.48 h	5.47 ± 0.28 h	10.12 ± 0.019 h	6.43 ± 1.1 h	13.6 ± 2.6 h	4.33 ± 0.24 h	4.17 ± 0.56 h	4.39 ± 0.22 h	7.57 ± 0.15 h
MDIIFYHPTFDTQWWIEALRKAIPQARVRAWKSGDNDSADYALVWHPPVEMLAGRDLKAVFALGAGVDSILSKLQAHPEMLNPSVPLFRLEDTGMGEQMQEYAVSQVLHWFRRFDDYRIQQNSSHWQPLPEYHREDFTIGILGAGVLGSKVAQSLQTWRFPLRCWSRTRKSWPGVQSFAGREELSAFLSQCRVLINLLPNTPETVGIINQQLLEKLPDGAYLLNLARGVHVVEDDLLAALDSGKVKGAMLDVFNREPLPPESPLWQHPRVTITPHVAAITRPAEAVEYISRTIAQLEKGERVCGQVDRARGY	5.02 ± 0.051 h	4.67 ± 0.34 h	4.43 ± 0.24 h	2.69 ± 0.43 h	5.64 ± 0.55 h	10.3 ± 1.4 h	5.821 ± 0.027 h	11 ± 0.45 h	4.58 ± 0.51 h	5.71 ± 1.3 h	4.45 ± 0.25 h	7.3 ± 0.49 h
MDIIGGQHLRQMWDDLADVYGHKTALICESSGGVVNRYSYLELNQEINRTANLFYTLGIRKGDKVALHLDNCPEFIFCWFGLAKIGAIMVPINARLLCEESAWILQNSQACLLVTSAQFYPMYQQIQQEDATQLRHICLTDVALPADDGVSSFTQLKNQQPATLCYAPPLSTDDTAEILFTSGTTSRPKGVVITHYNLRFAGYYSAWQCALRDDDVYLTVMPAFHIDCQCTAAMAAFSAGATFVLVEKYSARAFWGQVQKYRATVTECIPMMIRTLMVQPPSANDQQHRLREVMFYLNLSEQEKDAFCERFGVRLLTSYGMTETIVGIIGDRPGDKRRWPSIGRVGFCYEAEIRDDHNRPLPAGEIGEICIKGIPGKTIFKEYFLNPQATAKVLEADGWLHTGDTGYRDEEDFFYFVDRRCNMIKRGGENVSCVELENIIAAHPKIQDIVVVGIKDSIRDEAIKAFVVLNEGETLSEEEFFRFCEQNMAKFKVPSYLEIRKDLPRNCSGKIIRKNLK	5.31 h	–	3.61 ± 0.13 h	–	–	11.3 h	–	10.7 ± 0.12 h	–	6.57 h	4.98 h	7.9 h
MDIISVALKRHSTKAFDASKKLTPEQAEQIKTLLQYSPSSTNSQPWHFIVASTEEGKARVAKSAAGNYVFNERKMLDASHVVVFCAKTAMDDVWLKLVVDQEDADGRFATPEAKAANDKGRKFFADMHRKDLHDDAEWMAKQVYLNVGNFLLGVAALGLDAVPIEGFDAAILDAEFGLKEKGYTSLVVVPVGHHSVEDFNATLPKSRLPQNITLTEV	2.56 ± 0.26 h	2.01 ± 0.14 h	1.62 ± 0.067 h	2.72 ± 0.21 h	3.38 ± 0.86 h	5.94 ± 0.37 h	4.45 ± 0.91 h	7.04 ± 0.45 h	1.66 ± 0.42 h	1.405 ± 0.01 h	1.58 ± 0.097 h	2.17 ± 0.057 h
MDINNKARIHWACRRGMRELDISIMPFFEHEYDSLSDDEKRIFIRLLECDDPDLFNWLMNHGKPADAELEMMVRLIQTRNRERGPVAI	5.79 ± 0.24 h	–	–	3 h	–	6.71 h	4.97 h	11.3 ± 2.2 h	–	–	–	–
MDIPRIFTISESEHRIHNPFTEEKYATLGRVLRMKPGTRILDLGSGSGEMLCTWARDHGITGTGIDMSSLFTAQAKRRAEELGVSERVHFIHNDAAGYVANEKCDVAACVGATWIAGGFAGAEELLAQSLKPGGIMLIGEPYWRQLPATEEIAQACGVSSTSDFLTLPGLVGAFDDLGYDVVEMVLADQEGWDRYEAAKWLTMRRWLEANPDDDFAAEVRAELNIAPKRYVTYARECFGWGVFALIAR	5.64 ± 0.16 h	–	3.54 ± 0.12 h	2.7 ± 0.65 h	4.93 ± 0.38 h	9.89 ± 1.2 h	7.11 h	12.41 ± 0.083 h	–	5.71 ± 1.8 h	3.97 h	8.49 h
MDKELPWLADNAQLELKYKKGKTPLSHRRWPGEPVSVITGSLIQTLGDELLQKAEKKKNIVWRYENFSLEWQSAITQAINLIGEHKPSIPARTMAALACIAQNDSQQLLDEIVQQEGLEYATEVVIARQFIARCYESDPLVVTLQYQDEDYGYGYRSETYNEFDLRLRKHLSLAEESCWQRCADKLIAALPGINKVRRPFIALILPEKPEIANELVGLECPRTHFHSKEWLKVVANDPTAVRKLEHYWSQDIFSDREASYMSHENHFGYAACAALLREQGLAAIPRLAMYAHKEDCGSLLVQINHPQVIRTLLLVADKNKPSLQRVAKYHKNFPHATLAALAELLALTEPPARPGYPIIEDKKLPAQQKARDEYWRTLLQTLMASQPQLAAEVMPWLSTQPQSVLKSYLSAPPKPVIDGTDNSNLPEILVSPPWRSKKKMTAPRLDLAPLELTPQVYWQPGEQERLAATEPARYFSTESLAQRMEQKSGRVVLQELGFGDDVWLFLNYILPGKLDAARNSLFVQWHYYQGRVEEILNGWNSPEAQLAEQALRSGHIEALINIWENDNYSHYRPEKSVWNLYLLAQLPREMALTFWLRINEKKHLFAGEDYFLSILGLDALPGLLLAFSHRPKETFPLILNFGATELALPVAHVWRRFAAQRDLARQWILQWPEHTASALIPLVFTKPSDNSEAALLALRLLYEQGHGELLQTVANRWQRTDVWSALEQLLKQGPMDIYPARIPKAPDFWHPQMWSRPRLITNNQTVTNDALEIIGEMLRFTQGGRFYSGLEQLKTFCQPQTLAAFAWDLFTAWQQAGAPAKDNWAFLALSLFGDESTARDLTTQILAWPQEGKSARAVSGLNILTLMNNDMALIQLHHISQRAKSRPLRDNAAEFLQVVAENRGLSQEELADRLVPTLGLDDPQALSFDFGPRQFTVRFDENLNPVIFDQQNVRQKSVPRLRADDDQLKAPEALARLKGLKKDATQVSKNLLPRLETALRTTRRWSLADFHSLFVNHPFTRLVTQRLIWGVYPANEPRCLLKAFRVAAEGEFCNAQDEPIDLPADALIGIAHPLEMTAEMRSEFAQLFADYEIMPPFRQLSRRTVLLTPDESTSNSLTRWEGKSATVGQLMGMRYKGWESGYEDAFVYNLGEYRLVLKFSPGFNHYNVDSKALMSFRSLRVYRDNKSVTFAELDVFDLSEALSAPDVIFH	6.38 h	–	–	–	–	–	–	–	–	–	–	–

— the supplement of paper PMC11246515
